Square brackets hold non-standard residues; d marks the D form. Ends that are not written are not given here. Hyp = O=C(O)[C@@H]1C[C@@H](O)CN1
Biological target: T1, human bradykinin B2 receptor (human, UniProt P30411 1-391)
T1 sequence (looked up): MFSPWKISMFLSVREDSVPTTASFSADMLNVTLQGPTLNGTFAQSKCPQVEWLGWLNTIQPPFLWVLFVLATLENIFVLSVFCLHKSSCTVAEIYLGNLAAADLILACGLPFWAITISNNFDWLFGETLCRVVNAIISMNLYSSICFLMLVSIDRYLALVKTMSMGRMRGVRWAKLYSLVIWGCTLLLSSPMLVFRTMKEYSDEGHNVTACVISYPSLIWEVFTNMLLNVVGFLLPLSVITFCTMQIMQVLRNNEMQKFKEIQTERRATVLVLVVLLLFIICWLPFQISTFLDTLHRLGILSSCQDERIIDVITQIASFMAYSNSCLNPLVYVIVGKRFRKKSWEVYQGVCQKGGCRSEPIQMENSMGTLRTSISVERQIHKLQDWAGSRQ
Assay: cell-based or functional assay

Binder	[Ca^2+]i mobilization, Agonist Potency (EC50), h-CM cells	[Ca^2+]i mobilization, Agonist Potency (EC50), h-NPE cells	[Ca^2+]i mobilization, Agonist Potency (EC50), h-TM cells
MKRPPGFSPFR [Met-Lys-BK]	16.1 nM	125 nM	6.5 nM
RP[Hyp]GFSPFR [Hyp^3-BK]	–	6 nM	0.9 nM
KRPPGFSPFR [Lys-BK]	3.2 nM	19.6 nM	1.9 nM

Source: patent US7807629 (ALCON RESEARCH, dated 2010)
